These results are taken from US20240287202A1 (XYPHOS BIOSCIENCES, published 2024).

The target of assay [1] is T1, Fc-iNKG2D.YA (NKG2D ectodomain Y152A fused to the C-terminus of human IgG1 Fc) (human, UniProt P26718 78-216).
T1 construct: range 78-216; it is not tied by words to this Fc fusion; not shown: human IgG1 Fc
T1 sequence: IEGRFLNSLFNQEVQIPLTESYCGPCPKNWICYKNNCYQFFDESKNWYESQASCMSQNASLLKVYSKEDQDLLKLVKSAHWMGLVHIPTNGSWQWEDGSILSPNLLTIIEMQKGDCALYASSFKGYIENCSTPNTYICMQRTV
Kind of assay: Octet BLI; Fc-iNKG2D.YA captured on AHC tips, two-fold dilution series of MicAbody from 50 nM. From the text: (§1) The y-axes corresponding to binding responses were set to the same scale for all sensograms.
A general note: Biolayer interferometry detects binding as a change in optical thickness at a sensor tip.

In assay [2] the target is T2, Fc-wtNKG2D (wild-type NKG2D ectodomain fused to the C-terminus of human IgG1 Fc) (human, UniProt P26718 78-216).
T2 construct: range 78-216; Dimeric secreted protein from Expi293 cells; also called Fc-NKG2D; not shown: human IgG1 Fc
T2 sequence: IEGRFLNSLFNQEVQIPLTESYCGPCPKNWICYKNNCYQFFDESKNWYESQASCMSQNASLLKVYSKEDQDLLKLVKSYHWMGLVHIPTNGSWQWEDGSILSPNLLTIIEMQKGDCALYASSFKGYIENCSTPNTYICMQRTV
Description: Octet BLI; Fc-wtNKG2D captured on AHC tips, two-fold dilution series of MicAbody from 50 nM.
Text: as §1

The next assay concerns the target T3, mouse NKG2D (mouse, UniProt O54709 94-232, limits assumed).
T3 construct: also called mouse wild-type NKG2D
T3 sequence (looked up): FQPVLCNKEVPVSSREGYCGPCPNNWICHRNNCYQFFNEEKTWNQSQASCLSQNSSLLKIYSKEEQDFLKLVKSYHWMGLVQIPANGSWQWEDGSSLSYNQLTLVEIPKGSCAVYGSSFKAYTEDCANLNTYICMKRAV
Description: ELISA on mouse NKG2D, absorbance against nM MicAbody. (In an ELISA, binding on a coated surface is turned into a signal by an enzyme label.)

Assay [3] addresses T1, Fc-iNKG2D.YA (NKG2D ectodomain Y152A …). Kind of assay: Octet BLI; Fc-iNKG2D.YA captured on AHC tips, two-fold dilution series from 50 nM.
Text: as §1

The target of assay [4] is T2, Fc-wtNKG2D (wild-type NKG2D ectodomain …). Kind of assay: Octet BLI; Fc-wtNKG2D captured on AHC tips, two-fold dilution series from 50 nM.
Text: as §1

B1: Rituximab.HC-U2S3 MicAbody (U2S3 A1-A2 domain fused to the C-terminus of the rituximab heavy chain) (bispecific antibody, IgG1)
heavy (part 1 of 2): QVQLQQPGAELVKPGASVKMSCKASGYTFTSYNMHWVKQTPGRGLEWIGAIYPGNGDTSYNQKFKGKATLTADKSSSTAYMQLSSLTSEDSAVYYCARSTYYGGDWYFNVWGAGTTVTVSAA
heavy (part 2 of 2): GGGSEPHSLSYDITVIPKFRPGPRWCAVQGQVDEKTFLHYDCGQKTVTPVSPLGKKLQVTTAWKAQNPVLREVVDILTEQLWDIQLENYTPKEPLTLQARMSCEQKAEGHSSGSWQFSFDGQIFLLFDSEKRMWTTVHPGARKMKEKWENDKVVATKLYLWSMGDCIGWLEDFLMGMDSTLEPS
light: QIVLSQSPAILSASPGEKVTMTCRASSSVSYIHWFQQKPGSSPKPWIYATSNLASGVPVRFSGSGSGTSYSLTISRVEAEDAATYYCQQWTSNPPTFGGGTKLEIK
notes: IgG1 kappa, D265A/N297A; also called HC-fused MicAbody; Rit.HCd.S3; not shown: human IgG1 heavy-chain constant region, ADCC-deficient; human kappa light-chain constant region
The term Kd denotes a measure of binding affinity in units of concentration. A higher Kd goes with a looser complex. In turn, B1 registered an equilibrium dissociation constant (Kd) in assay [1] of 0.023 nM. The binding result in assay [2] is “no binding (tested: 50 nM (legend))”.

B2: Rituximab (antibody, V domains shown)
VH: QVQLQQPGAELVKPGASVKMSCKASGYTFTSYNMHWVKQTPGRGLEWIGAIYPGNGDTSYNQKFKGKATLTADKSSSTAYMQLSSLTSEDSAVYYCARSTYYGGDWYFNVWGAGTTVTVSA
VL: QIVLSQSPAILSASPGEKVTMTCRASSSVSYIHWFQQKPGSSPKPWIYATSNLASGVPVRFSGSGSGTSYSLTISRVEAEDAATYYCQQWTSNPPTFGGGTKLEIKR
notes: also called Rituximab (ADCC-); Rituxumab (ADCC); copies: 2 + 2
With B2, the binding result with mouse NKG2D is recorded as “no binding (tested: about 300 nM)”; in assay [3] it was “no binding (tested: 50 nM (legend))”; in assay [4], “no binding (tested: 50 nM (legend))”.
